Results as given in patent US20060026702A1, “Phosphoinositide 3-kinase mediated inhibition of GPCRs” (DUKE UNIVERSITY, priority 2002, published 2006).

T1: βARK1/PI3K interaction (Bos taurus, UniProt P21146)
T1 construct: recognizes both full length βARK1 and the βARKct; expressed in transfected cells; host or cells: HEK 293
T1 sequence (P21146 1-689): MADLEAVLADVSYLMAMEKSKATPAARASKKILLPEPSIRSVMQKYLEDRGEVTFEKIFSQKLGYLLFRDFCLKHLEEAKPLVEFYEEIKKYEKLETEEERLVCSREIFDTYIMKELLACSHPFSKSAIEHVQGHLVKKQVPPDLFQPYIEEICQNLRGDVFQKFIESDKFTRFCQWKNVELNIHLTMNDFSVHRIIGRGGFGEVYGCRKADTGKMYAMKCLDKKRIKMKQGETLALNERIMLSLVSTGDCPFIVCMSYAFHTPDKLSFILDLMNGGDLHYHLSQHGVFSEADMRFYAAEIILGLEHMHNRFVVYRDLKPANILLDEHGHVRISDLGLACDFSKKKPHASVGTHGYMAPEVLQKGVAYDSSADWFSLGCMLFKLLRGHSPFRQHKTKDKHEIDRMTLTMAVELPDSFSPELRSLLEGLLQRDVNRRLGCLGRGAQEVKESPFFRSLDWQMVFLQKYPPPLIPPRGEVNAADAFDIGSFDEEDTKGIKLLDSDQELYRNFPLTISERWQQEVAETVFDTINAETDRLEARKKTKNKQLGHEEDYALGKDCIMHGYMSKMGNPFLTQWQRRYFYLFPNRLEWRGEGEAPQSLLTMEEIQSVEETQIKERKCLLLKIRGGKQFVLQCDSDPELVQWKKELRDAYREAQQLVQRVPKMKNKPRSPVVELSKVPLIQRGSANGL

T2: βARK1 (Bos taurus, UniProt P21146)
T2 construct: gift from Dr. Robert Lefkowitz
T2 sequence (P21146 1-689): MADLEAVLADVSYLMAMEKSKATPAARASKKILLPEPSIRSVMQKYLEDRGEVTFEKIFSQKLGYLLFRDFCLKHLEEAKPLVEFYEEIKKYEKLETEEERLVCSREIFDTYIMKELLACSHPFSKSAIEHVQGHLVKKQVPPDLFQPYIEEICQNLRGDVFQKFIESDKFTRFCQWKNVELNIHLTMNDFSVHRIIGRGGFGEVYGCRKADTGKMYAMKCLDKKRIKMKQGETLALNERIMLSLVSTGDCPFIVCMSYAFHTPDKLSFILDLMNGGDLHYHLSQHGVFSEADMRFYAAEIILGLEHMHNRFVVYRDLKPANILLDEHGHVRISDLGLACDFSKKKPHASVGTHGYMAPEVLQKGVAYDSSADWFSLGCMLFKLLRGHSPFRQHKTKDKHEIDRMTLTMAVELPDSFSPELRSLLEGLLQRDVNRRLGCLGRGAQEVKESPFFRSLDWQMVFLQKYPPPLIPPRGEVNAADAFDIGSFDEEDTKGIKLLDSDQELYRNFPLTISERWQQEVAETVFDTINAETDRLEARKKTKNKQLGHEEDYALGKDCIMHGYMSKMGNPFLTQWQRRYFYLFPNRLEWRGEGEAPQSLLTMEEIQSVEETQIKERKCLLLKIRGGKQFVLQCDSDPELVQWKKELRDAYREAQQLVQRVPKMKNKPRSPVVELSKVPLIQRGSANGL


Legend:
PI3K [1] = target: T3, PI3K (Homo sapiens, UniProt P48736, DEL30-30/Q459R); experiment: βARK1 associated PI3K activity (lipid kinase assay) in transfected NIH-3T3 cells; type: cell-based, Mouse; conditions: co-transfected βARKct cDNA
T3 construct: expressed in transfected cells; host or cells: NIH-3T3
T3 sequence (P48736 with tags, fused parts or gaps DEL30-30/Q459R): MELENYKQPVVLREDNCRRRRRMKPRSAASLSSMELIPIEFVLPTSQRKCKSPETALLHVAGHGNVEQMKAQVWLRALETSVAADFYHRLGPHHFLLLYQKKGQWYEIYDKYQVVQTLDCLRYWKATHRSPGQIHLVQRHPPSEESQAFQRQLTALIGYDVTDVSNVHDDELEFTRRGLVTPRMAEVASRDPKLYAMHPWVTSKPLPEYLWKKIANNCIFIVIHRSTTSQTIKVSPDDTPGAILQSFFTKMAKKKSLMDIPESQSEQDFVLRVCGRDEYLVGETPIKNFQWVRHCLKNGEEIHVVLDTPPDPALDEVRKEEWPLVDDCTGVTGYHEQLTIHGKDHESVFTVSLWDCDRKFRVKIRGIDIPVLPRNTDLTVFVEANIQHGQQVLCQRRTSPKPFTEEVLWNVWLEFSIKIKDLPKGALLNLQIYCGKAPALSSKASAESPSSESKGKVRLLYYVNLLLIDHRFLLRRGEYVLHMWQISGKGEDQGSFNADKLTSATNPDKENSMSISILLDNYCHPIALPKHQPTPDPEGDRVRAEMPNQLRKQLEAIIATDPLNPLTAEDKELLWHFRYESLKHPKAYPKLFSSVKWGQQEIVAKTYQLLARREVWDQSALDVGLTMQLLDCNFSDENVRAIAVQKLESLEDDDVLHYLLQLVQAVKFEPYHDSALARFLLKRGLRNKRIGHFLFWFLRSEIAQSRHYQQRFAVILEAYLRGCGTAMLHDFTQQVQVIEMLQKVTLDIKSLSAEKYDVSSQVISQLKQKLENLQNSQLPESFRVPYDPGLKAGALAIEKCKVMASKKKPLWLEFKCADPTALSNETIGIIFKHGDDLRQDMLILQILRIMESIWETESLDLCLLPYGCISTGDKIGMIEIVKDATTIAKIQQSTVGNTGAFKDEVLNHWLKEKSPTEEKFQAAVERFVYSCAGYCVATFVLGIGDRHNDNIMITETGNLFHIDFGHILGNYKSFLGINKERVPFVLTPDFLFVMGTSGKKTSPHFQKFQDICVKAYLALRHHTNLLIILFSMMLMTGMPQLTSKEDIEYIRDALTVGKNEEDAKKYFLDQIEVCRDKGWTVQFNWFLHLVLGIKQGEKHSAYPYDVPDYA
Experimental: (§1) Cell Culture—Mouse NIH-3T3 and HEK293 cells were maintained in either Iscoves modified Dulbecco's medium or minimal essential medium (MEM) supplemented with 10% fetal bovine serum and 1:100 penicillin-streptomycin (10,000 U/ml) at 37° C. Cells were seeded at a density of ˜1-3×10^5 cells/35 mm^2 dish and at 70-80% confluence were transiently transfected using the transfection reagent FUGENE6 (ROCHE) or calcium phosphate precipitation. Cells were harvested 24 hours after transfection, re-plated in triplicate, allowed to grow overnight and serum starved for 2-4 hours before agonist stimulation.
(§2) Cytosolic and Membrane Fractionation—Cell monolayers were scraped in 1 ml of buffer containing 25 mM Tris-HCl (pH 7.5), 5 mM EDTA, 5 mM EGTA, 1 mM phenylmethylsulfonyl fluoride, 2 μg/ml each of leupeptin and aprotinin and disrupted further by using Dounce homogenizer. Intact cells and nuclei were removed by-centrifugation at 1,000×g for 5 min. The collected supernatant was further subject to a centrifugation at 38,000×g for 25 min. The pellet was resuspended in lysis buffer (1% Nonidet P-40, 10% glycerol, 137 mM NaCl, 20 mM Tris-Cl (ph 7.4), 1 mM phenylmethylsulfonyl fluoride, 20 mM NaF, 1 mM sodium pyrophosphate, 1 mM sodium orthovanadate and 2 μg/ml each of aprotinin and leupeptin) and used as membrane fraction and the supernatant was diluted in lysis buffer and used as the cytosolic fraction.
(§3) Lipid Kinase Assays—Cells were lysed in lysis buffer and 2 mg cytosolic extract was used for immunoprecipitation with either the C5/1 monoclonal antibody directed against βARK1, the anti-FLAG M2 monoclonal antibody (Sigma) or antibodies to p110γ, or p110β (Santa Cruz Biotechnology) and protein G-agarose. Sedimented beads were then washed once with 1 ml of lysis buffer, thrice with 1 ml of phosphate-buffered saline (1× phosphate-buffered saline, 1% NP-40 and 100 μM sodium orthovanadate), thrice with 1 ml of Tris/LiCl (100 mM Tris-HCl (pH 7.4), 5 mM LiCl and 100 μM sodium orthovanadate) and twice with TNE (10 mM Tris Cl (pH 7.4), 150 mM NaCl, 5 mM EDTA and 100 μM sodium orthovanadate). Samples were then resuspended in 50 ml of TNE and 10 μl of 100 mM MgCl2 was added to each sample. The substrate, phosphatidylinositol (PI, Avanti), was prepared by drying 50 μl of the 10 mg/ml stock (PI in chloroform) in an eppendorf tube with a stream of air and adding 250 μl of TE (10 mM Tris Cl (pH 7.4) and 1 mM EDTA). The PI was then suspended by sonication in an ice bath for 3 minutes. 10 p, of the PI solution and 11 μl of ATP solution (440 μM cold ATP and 1 μCi/μl of [γ-32P]ATP) were added to each sample. […] Autoradiography of dried plates was used to detect signals, and PIP was quantified by phosphorimaging. […] Values are expressed as fold increase/decrease relative to wild-type/control.

PI3K [2] = target: T4, PI3K (Homo sapiens, UniProt P48736); experiment: as above; type: cell-based, Mouse; conditions: co-transfected βARKct cDNA; isoproterenol 2 min
T4 construct: expressed in transfected cells; host or cells: NIH-3T3
T4 sequence (P48736 with tags, fused parts or gaps DEL30-30/Q459R): as above
Experimental: as §1, §2, §3

βARK1/PI3K interaction = target: T1, βARK1/PI3K interaction; experiment: βARK1 associated PI3K activity in HEK 293 cells co-transfected with HEAT or PI3KΔHEAT; type: cell-based; conditions: 4 μg cDNA co-transfected with βARK1
Experimental: The present inventors determined that overexpression of the 197 amino acid HEAT domain of PI3K competed for endogenous PI3K binding to βARK1 in living cells. HEK 293 cells were co-transfected with plasmids containing the βARK1 cDNA (2 μg) and increasing concentrations of the HEAT domain cDNA (ranging from 0 to 6 μg). […] The maximal reduction of βARK1 associated PI3K activity occurred when cells were co-transfected with 4 μg of HEAT cDNA (FIG. 9B). Summary results of n=5 experiments. *, p<0.0005. The data was normalized to βARK1 associated PI3K activity in cells transfected with βARK1 only. Furthermore, FLAG tagged HEAT protein co-immunoprecipitated with βARK1 monoclonal antibodies in the co-transfected HEK 293 cells.
The absence of the HEAT domain in an otherwise intact PI3K molecule affected the association of βARK1 with endogenous PI3K in cells. HEK 293 cells were co-transfected with plasmids containing cDNAs for βARK1 (2 μg), βARK1 plus HEAT (4 μg), and βARK1 plus PI3KΔHEAT (4 μg). Cell lysates were immunoprecipitated with a βARK1 monoclonal antibody and assayed for the associated PI3K activity. Expression of PI3KΔHEAT had no effect on the endogenous βARK1/PI3K interaction, whereas overexpression of HEAT abolished this interaction (FIGS. 9C and 9D). […] The data was normalized to βARK1 associated PI3K activity in cells transfected with βARK1 only.
Cytosolic and membrane fractions were prepared and analyzed for βARK1 associated PI3K activity. […] Membrane fractions were prepared from the HEK293 cells co-transfected with the βARK1 (2 μg), βARK1 and HEAT domain (4 μg) containing plasmids.

βARK1 = target: T2, βARK1; experiment: Co-immunoprecipitation and GST pull-down with purified βARK1; type: binding; conditions: immunoprecipitated FLAG-HEAT or PI3KΔHEAT-HA
Experimental: GST Fusion Protein Expression and Pull-down Experiments—Plasmid DNAs were transformed in Escherichia coli BL21 cells. Overnight cultures were grown in LB medium supplemented with ampicillin (100 μg/ml), diluted to an A600 of 0.2 in the same medium and grown for another 1 hr at 37° C. Cultured cells were then induced with 0.1 mM isopropyl-1-thio-β-D-galactopyranoside for 2 hr. Cell were then pelleted, washed once with 1× phosphate-buffered saline and resuspended in 1× phosphate-buffered saline containing 1 mM phenylmethylsulfonyl fluoride, 2 mg/ml lysozyme and incubated for 15 min on ice. Cells were lysed by adding Triton X-100 1%. Solublized cells were incubated with DNase (300 units) for 15 min on ice and centrifuged at 13,000 rpm for 10 min.
Glutathione-Sepharose beads were added to the supernatant and gently agitated at 4° C. for 2 hr. Beads were washed three times with ice cold 1×PBS containing 1% Triton X-100 followed by three washes with cold PBS without detergent. Protein concentration was determined using a DC protein assay kit (Bio Rad), and the integrity of the fusion protein was analyzed by SDS-polyacrylamide gel electrophoresis and Coomassie staining.
The beads were spun and washed three times with binding buffer followed by three washes with binding buffer without detergent. The beads were resuspended in SDS gel loading buffer and resolved by gel electrophoresis, immunblotting and detection was carried out described later.
FLAG-HEAT and PI3KΔHEAT proteins were immunoprecipitated from cell extracts using monoclonal FLAG and HA antibodies respectively, fractionated by SDS-PAGE and analyzed by immunoblotting with βARK1 monoclonal antibody. […] Levels of expression of HEAT and PI3KΔHEAT proteins were similar (FIG. 8B, lower panel).
To investigate whether there was a direct physical interaction between the HEAT domain of PI3K and βARK1, GST-HEAT fusion protein containing 535-732 amino acid residues of PI3Kγ was produced, which including the entire HEAT domain and flanking upstream 10 amino acids and downstream 7 amino acids. […]

[3] = Catalytic (lipid kinase) activity of PI3K mutant; type: biochemical; conditions: compared with wild type PI3K
Description: PI3KΔHEAT was constructed using 2 PCR reactions that selectively amplified regions of PI3K upstream and downstream from the HEAT domain (FIG. 8a). The region of PI3K upstream from HEAT was amplified using the forward primer (5′-[…]-3′) containing a BamHI site and Kozak consensus sequence, and the reverse primer (5′-[…]-3′) containing a SacI site. The region of PI3K downstream of the HEAT domain was amplified using the forward primer (5′-[…]-3′) containing a SacI site and the reverse primer (5′-[…]-3′) containing a BamHI site and a consensus stop codon. The upstream and downstream regions of PI3K were separately subcloned in the zero-blunt TOPO vector and sequence was verified by dideoxy sequencing. Following digestion with the restriction enzymes BamHI/SacI, a three fragment ligation was carried with the mammalian expression vector pRK5, to generate the plasmid containing the PI3KΔHEAT cDNA (FIG. 8a). […] The plasmids containing cDNAs encoding βARK1, FLAG-β2AR, HA-β2AR and p110γ have been described previously.

Molecule | βARK1 associated PI3K activity in the cytosolic fraction (PI3K [1]) | agonist-dependent translocation of βARK1 associated PI3K activity to the membrane (PI3K [2]) | endogenous βARK1/PI3K interaction (βARK1/PI3K interaction) | association with purified βARK1 (immune complexes from HEK 293 extracts) (βARK1) | catalytic activity [3]
βARKct: carboxyl terminus of βARK1 that attenuates the Gβγ dependent signaling (protein) GIKLLDSDQELYRNFPLTISERWQQEVAETVFDTINAETDRLEARKKTKNKQLGHEEDYALGKDCIMHGYMSKMGNPFLTQWQRRYFYLFPNRLEWRGEGEAPQSLLTMEEIQSVEETQIKERKCLLLKIRGGKQFVLQCDSDPELVQWKKELRDAYREAQQLVQRVPKMKNKPRSPVVELSKVPLIQRGSANGL | loss | abolished |  |  | 
PI3KΔHEAT: HA tagged PI3K mutant with a deletion of the HEAT domain (protein) MELENYKQPVVLREDNCRRRRRMKPRSAASLSSMELIPIEFVLPTSQRKCKSPETALLHVAGHGNVEQMKAQVWLRALETSVAADFYHRLGPHHFLLLYQKKGQWYEIYDKYQVVQTLDCLRYWKATHRSPGQIHLVQRHPPSEESQAFQRQLTALIGYDVTDVSNVHDDELEFTRRGLVTPRMAEVASRDPKLYAMHPWVTSKPLPEYLWKKIANNCIFIVIHRSTTSQTIKVSPDDTPGAILQSFFTKMAKKKSLMDIPESQSEQDFVLRVCGRDEYLVGETPIKNFQWVRHCLKNGEEIHVVLDTPPDPALDEVRKEEWPLVDDCTGVTGYHEQLTIHGKDHESVFTVSLWDCDRKFRVKIRGIDIPVLPRNTDLTVFVEANIQHGQQVLCQRRTSPKPFTEEVLWNVWLEFSIKIKDLPKGALLNLQIYCGKAPALSSKASAESPSSESKGKVRLLYYVNLLLIDHRFLLRRGEYVLHMWQISGKGEDQGSFNADKLTSATNPDKENSMSISILLDNYCHPIALPKHQPTPDPEGDRGTAMLHDFTQQVQVIEMLQKVTLDIKSLSAEKYDVSSQVISQLKQKLENLQNSQLPESFRVPYDPGLKAGALAIEKCKVMASKKKPLWLEFKCADPTALSNETIGIIFKHGDDLRQDMLILQILRIMESIWETESLDLCLLPYGCISTGDKIGMIEIVKDATTIAKIQQSTVGNTGAFKDEVLNHWLKEKSPTEEKFQAAVERFVYSCAGYCVATFVLGIGDRHNDNIMITETGNLFHIDFGHILGNYKSFLGINKERVPFVLTPDFLFVMGTSGKKTSPHFQKFQDICVKAYLALRHHTNLLIILFSMMLMTGMPQLTSKEDIEYIRDALTVGKNEEDAKKYFLDQIEVCRDKGWTVQFNWFLHLVLGIKQGEKHSAYPYDVPDYA |  |  | no effect | not | indistinguishable from wild type PI3K
